Measurements as given in patent US20130143798A1 (Novo Nordisk, published 2013).
Numbered stars: 1 amine (or outer) side, 2 acyl side, 3 side chain; on linkers, the order of the positions; unused ones are H or OH. Square brackets hold non-standard residues; d marks the D form. Side chains are listed from the residue outwards. Ends that are not written are not given here. * marks the point of attachment. C18 diacid = O=C(O)CCCCCCCCCCCCCCCCC(=O)*; pY = N[C@@H](Cc1ccc(OP(=O)(O)O)cc1)C(=O)O; γGlu = O=C(O)[C@H](CCC(=O)[*:2])N[*:1]; AEEA = NCCOCCOCC(=O)O

B1: N^α- ([Lys^17, Glu^21, Leu^27]Glucagonyl) … (peptide)
peptide: HSQGTFTSDYSKYLDSKRAQEFVQWLLNTK([AEEA-AEEA-γGlu-C18 diacid])-NH2
modifications: N-terminus assumed
SMILES: CC(C)C[C@H](NC(=O)[C@H](Cc1ccc(O)cc1)NC(=O)[C@H](CCCCN)NC(=O)[C@H](CO)NC(=O)[C@H](Cc1ccc(O)cc1)NC(=O)[C@H](CC(=O)O)NC(=O)[C@H](CO)NC(=O)[C@@H](NC(=O)[C@H](Cc1ccccc1)NC(=O)[C@@H](NC(=O)CNC(=O)[C@H](CCC(N)=O)NC(=O)[C@H](CO)NC(=O)[C@@H](N)Cc1c[nH]cn1)[C@@H](C)O)[C@@H](C)O)C(=O)N[C@@H](CC(=O)O)C(=O)N[C@@H](CO)C(=O)N[C@@H](CCCCN)C(=O)N[C@@H](CCCNC(=N)N)C(=O)N[C@@H](C)C(=O)N[C@@H](CCC(N)=O)C(=O)N[C@@H](CCC(=O)O)C(=O)N[C@@H](Cc1ccccc1)C(=O)N[C@H](C(=O)N[C@@H](CCC(N)=O)C(=O)N[C@@H](Cc1c[nH]c2ccccc12)C(=O)N[C@@H](CC(C)C)C(=O)N[C@@H](CC(C)C)C(=O)N[C@@H](CC(N)=O)C(=O)N[C@H](C(=O)N[C@@H](CCCCNC(=O)COCCOCCNC(=O)COCCOCCNC(=O)CC[C@H](NC(=O)CCCCCCCCCCCCCCCCC(=O)O)C(=O)O)C(N)=O)[C@@H](C)O)C(C)C
B2: N^ε28 ([2-[2-[2-[[2-[2-[2-[[(4S)-5-hydroxy-4-[(18-hydroxy-18-oxooctadecanoyl)amino]-5-oxopentanoyl]amino]ethoxy]ethoxy]acetyl]amino]ethoxy]ethoxy]acetyl]) … (peptide)
peptide: HSQGTFTSDYSKYLDSKRAQEFVQWLLK([AEEA-AEEA-γGlu-C18 diacid])T-NH2
modifications: N-terminus assumed
SMILES: CC(C)C[C@H](NC(=O)[C@H](Cc1ccc(O)cc1)NC(=O)[C@H](CCCCN)NC(=O)[C@H](CO)NC(=O)[C@H](Cc1ccc(O)cc1)NC(=O)[C@H](CC(=O)O)NC(=O)[C@H](CO)NC(=O)[C@@H](NC(=O)[C@H](Cc1ccccc1)NC(=O)[C@@H](NC(=O)CNC(=O)[C@H](CCC(N)=O)NC(=O)[C@H](CO)NC(=O)[C@@H](N)Cc1c[nH]cn1)[C@@H](C)O)[C@@H](C)O)C(=O)N[C@@H](CC(=O)O)C(=O)N[C@@H](CO)C(=O)N[C@@H](CCCCN)C(=O)N[C@@H](CCCNC(=N)N)C(=O)N[C@@H](C)C(=O)N[C@@H](CCC(N)=O)C(=O)N[C@@H](CCC(=O)O)C(=O)N[C@@H](Cc1ccccc1)C(=O)N[C@H](C(=O)N[C@@H](CCC(N)=O)C(=O)N[C@@H](Cc1c[nH]c2ccccc12)C(=O)N[C@@H](CC(C)C)C(=O)N[C@@H](CC(C)C)C(=O)N[C@@H](CCCCNC(=O)COCCOCCNC(=O)COCCOCCNC(=O)CC[C@H](NC(=O)CCCCCCCCCCCCCCCCC(=O)O)C(=O)O)C(=O)N[C@H](C(N)=O)[C@@H](C)O)C(C)C
B3: N^ε25 … (peptide)
peptide: HSQGTFTSDYSKYLDSKRAQEFVQK([AEEA-AEEA-γGlu-C18 diacid])LLNT-NH2
modifications: N-terminus assumed
SMILES: CC(C)C[C@H](NC(=O)[C@H](Cc1ccc(O)cc1)NC(=O)[C@H](CCCCN)NC(=O)[C@H](CO)NC(=O)[C@H](Cc1ccc(O)cc1)NC(=O)[C@H](CC(=O)O)NC(=O)[C@H](CO)NC(=O)[C@@H](NC(=O)[C@H](Cc1ccccc1)NC(=O)[C@@H](NC(=O)CNC(=O)[C@H](CCC(N)=O)NC(=O)[C@H](CO)NC(=O)[C@@H](N)Cc1c[nH]cn1)[C@@H](C)O)[C@@H](C)O)C(=O)N[C@@H](CC(=O)O)C(=O)N[C@@H](CO)C(=O)N[C@@H](CCCCN)C(=O)N[C@@H](CCCNC(=N)N)C(=O)N[C@@H](C)C(=O)N[C@@H](CCC(N)=O)C(=O)N[C@@H](CCC(=O)O)C(=O)N[C@@H](Cc1ccccc1)C(=O)N[C@H](C(=O)N[C@@H](CCC(N)=O)C(=O)N[C@@H](CCCCNC(=O)COCCOCCNC(=O)COCCOCCNC(=O)CC[C@H](NC(=O)CCCCCCCCCCCCCCCCC(=O)O)C(=O)O)C(=O)N[C@@H](CC(C)C)C(=O)N[C@@H](CC(C)C)C(=O)N[C@@H](CC(N)=O)C(=O)N[C@H](C(N)=O)[C@@H](C)O)C(C)C
B4: N^ε27 ([2-[2-[2-[[2-[2-[2-[[(4S)-5-hydroxy-4-[(18-hydroxy-18-oxooctadecanoyl)amino]-5-oxopentanoyl]amino]ethoxy]ethoxy]acetyl]amino]ethoxy]ethoxy]acetyl]) … (peptide)
peptide: HSQGTFTSDYSKYLDSKRAQEFVQWLK([AEEA-AEEA-γGlu-C18 diacid])NT-NH2
modifications: N-terminus assumed
SMILES: CC(C)C[C@H](NC(=O)[C@H](Cc1ccc(O)cc1)NC(=O)[C@H](CCCCN)NC(=O)[C@H](CO)NC(=O)[C@H](Cc1ccc(O)cc1)NC(=O)[C@H](CC(=O)O)NC(=O)[C@H](CO)NC(=O)[C@@H](NC(=O)[C@H](Cc1ccccc1)NC(=O)[C@@H](NC(=O)CNC(=O)[C@H](CCC(N)=O)NC(=O)[C@H](CO)NC(=O)[C@@H](N)Cc1c[nH]cn1)[C@@H](C)O)[C@@H](C)O)C(=O)N[C@@H](CC(=O)O)C(=O)N[C@@H](CO)C(=O)N[C@@H](CCCCN)C(=O)N[C@@H](CCCNC(=N)N)C(=O)N[C@@H](C)C(=O)N[C@@H](CCC(N)=O)C(=O)N[C@@H](CCC(=O)O)C(=O)N[C@@H](Cc1ccccc1)C(=O)N[C@H](C(=O)N[C@@H](CCC(N)=O)C(=O)N[C@@H](Cc1c[nH]c2ccccc12)C(=O)N[C@@H](CC(C)C)C(=O)N[C@@H](CCCCNC(=O)COCCOCCNC(=O)COCCOCCNC(=O)CC[C@H](NC(=O)CCCCCCCCCCCCCCCCC(=O)O)C(=O)O)C(=O)N[C@@H](CC(N)=O)C(=O)N[C@H](C(N)=O)[C@@H](C)O)C(C)C
B5: N^ε29 … (peptide)
peptide: HSQGTFTSDYSKYLDSKRAQEFVQWLLNK([AEEA-AEEA-γGlu-C18 diacid])-NH2
modifications: N-terminus assumed
SMILES: CC(C)C[C@H](NC(=O)[C@H](CC(C)C)NC(=O)[C@H](Cc1c[nH]c2ccccc12)NC(=O)[C@H](CCC(N)=O)NC(=O)[C@@H](NC(=O)[C@H](Cc1ccccc1)NC(=O)[C@H](CCC(=O)O)NC(=O)[C@H](CCC(N)=O)NC(=O)[C@H](C)NC(=O)[C@H](CCCNC(=N)N)NC(=O)[C@H](CCCCN)NC(=O)[C@H](CO)NC(=O)[C@H](CC(=O)O)NC(=O)[C@H](CC(C)C)NC(=O)[C@H](Cc1ccc(O)cc1)NC(=O)[C@H](CCCCN)NC(=O)[C@H](CO)NC(=O)[C@H](Cc1ccc(O)cc1)NC(=O)[C@H](CC(=O)O)NC(=O)[C@H](CO)NC(=O)[C@@H](NC(=O)[C@H](Cc1ccccc1)NC(=O)[C@@H](NC(=O)CNC(=O)[C@H](CCC(N)=O)NC(=O)[C@H](CO)NC(=O)[C@@H](N)Cc1c[nH]cn1)[C@@H](C)O)[C@@H](C)O)C(C)C)C(=O)N[C@@H](CC(N)=O)C(=O)N[C@@H](CCCCNC(=O)COCCOCCNC(=O)COCCOCCNC(=O)CC[C@H](NC(=O)CCCCCCCCCCCCCCCCC(=O)O)C(=O)O)C(N)=O
B6: N^α-([His^24,Leu^27]-Glucagonyl)-N^ε[(4S)-4-carboxy-4-[[(4S)-4-carboxy-4-[[2-[2-[2-[[2-[2-[2-[[(4S)-4-carboxy-4-(17-carboxyheptadecanoylamino)butanoyl]amino]eth … (peptide)
peptide: HSQGTFTSDYSKYLDSRRAQDFVHWLLNTK
modifications: C-terminal Lys (position 30): N-epsilon acylated with the substituent printed in the name

These binders were tested against T1, glucagon receptor (UniProt P47871 26-477, limits assumed) (assay: cell-based or functional assay).
T1 sequence (P47871 26-477 limits assumed): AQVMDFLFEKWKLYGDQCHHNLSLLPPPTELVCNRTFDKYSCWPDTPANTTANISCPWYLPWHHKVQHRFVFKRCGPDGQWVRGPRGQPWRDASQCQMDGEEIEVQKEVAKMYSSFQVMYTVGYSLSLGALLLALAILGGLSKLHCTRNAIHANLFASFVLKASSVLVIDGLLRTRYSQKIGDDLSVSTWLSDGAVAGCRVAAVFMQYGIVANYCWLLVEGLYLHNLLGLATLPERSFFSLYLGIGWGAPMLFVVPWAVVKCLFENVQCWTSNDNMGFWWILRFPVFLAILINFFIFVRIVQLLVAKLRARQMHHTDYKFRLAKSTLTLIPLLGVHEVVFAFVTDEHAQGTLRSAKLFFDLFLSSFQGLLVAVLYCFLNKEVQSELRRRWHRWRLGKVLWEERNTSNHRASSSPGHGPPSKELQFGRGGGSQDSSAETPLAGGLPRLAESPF

Row | Binder | Assay (I) Glucagon [EC50] [nM]
1 | B1 | 0.017
2 | B2 | 0.003
3 | B3 | 0.012
4 | B4 | 0.007
5 | B5 | 0.003
6 | HSQGTFTSDYSKYLDSKRAQEFVK([AEEA-AEEA-γGlu-C18 diacid])WLLNT | 0.022
7 | HSQGTFTSDYSKYLDSRQAQEFVK([AEEA-AEEA-γGlu-C18 diacid])WLLNT | 0.15
8 | HSQGTFTSDYSKYLDSRRAQDFVK([AEEA-AEEA-γGlu-C18 diacid])HLLNT | 0.194
9 | HSQGTFTSDYSKYLDSKKAQEFVK([AEEA-AEEA-γGlu-C18 diacid])WLLST | 0.009
10 | HSQGTFTSDYSKYLDSRRAQDFVK([AEEA-AEEA-γGlu-C18 diacid])[pY]LLNT | 0.171
11 | HSQGTFTSDYSKYLDSRRAQEFVK([AEEA-AEEA-γGlu-C18 diacid])RLLNT | 0.074
12 | HSQGTFTSDYSKYLDK([AEEA-AEEA-γGlu-C18 diacid])KRAQEFVQWLLNT | 0.02
13 | HSQGTFTSDYSKYLDK([AEEA-AEEA-γGlu-C18 diacid])KKAQEFVQWLLNT | 0.02
14 | HSQGTFTSDYSKYLDSRRAQDFVQK([AEEA-AEEA-γGlu-C18 diacid])LLNT | 0.155
15 | HSQGTFTSDYSKYLDSRRAQDFVQWLLK([AEEA-AEEA-γGlu-C18 diacid])T | 0.022

Target: T1, glucagon receptor
Experiment: cell-based or functional assay
Remark: another data set of the same source

Row | Binder | Assay (I) Glucagon [EC50] [nM]
16 | HSQGTFTSDYSKYLDK([γGlu-γGlu-AEEA-AEEA-γGlu-C18 diacid])RRAQEFVQRLLNT | 0.45
17 | HSQGTFTSDYSKYLDSRRAEDFVK([γGlu-γGlu-AEEA-AEEA-γGlu-C18 diacid])WLLST | 0.307
18 | B6 | 0.1
19 | HSQGTFTSDYSKYLDSRRAQDFVQWLLK([γGlu-AEEA-AEEA-γGlu-γGlu-C18 diacid])T | 0.093
20 | HSQGTFTSDYSKYLDSRRAQDFVQWLLK([AEEA-AEEA-γGlu-γGlu-γGlu-C18 diacid])T | 0.116
21 | HSQGTFTSDYSKYLDSRRAQDFVK([γGlu-AEEA-AEEA-γGlu-γGlu-C18 diacid])WLLST | 0.106
22 | HSQGTFTSDYSKYLDSRRAQDFVK([AEEA-AEEA-γGlu-γGlu-γGlu-C18 diacid])WLLST | 0.115
23 | HSQGTFTSDYSKYLDK([γGlu-γGlu-AEEA-AEEA-γGlu-C18 diacid])RRAQDFVQWLLNT | 0.105
